Positions count from the first letter of the chain named. Like-named read-outs stand apart in the source and are kept apart here. Each block holds one binder with its values, some of them ahead of it.
Tests used:
[1] = biological target: T1, human Trop-2 on Trop-2 positive cancer cells (human, UniProt P09758 27-323); test: cell-based or functional assay
T1 sequence (looked up): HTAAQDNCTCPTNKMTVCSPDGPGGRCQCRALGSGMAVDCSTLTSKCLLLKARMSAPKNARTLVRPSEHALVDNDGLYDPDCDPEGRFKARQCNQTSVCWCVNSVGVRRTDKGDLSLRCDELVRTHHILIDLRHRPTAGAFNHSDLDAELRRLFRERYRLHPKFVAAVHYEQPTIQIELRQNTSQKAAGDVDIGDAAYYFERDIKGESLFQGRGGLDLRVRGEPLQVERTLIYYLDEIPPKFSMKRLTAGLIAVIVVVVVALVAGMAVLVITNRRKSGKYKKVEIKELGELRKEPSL

[2] = biological target: T2, human Trop-2-ECD-6His fusion protein (human, UniProt P09758 27-274); test: antigen binding ELISA on immobilized human Trop-2-ECD-6His
T2 construct: Expressed in a human 293 cell line; also called huTrop-2; human Trop-2 antigen
T2 sequence: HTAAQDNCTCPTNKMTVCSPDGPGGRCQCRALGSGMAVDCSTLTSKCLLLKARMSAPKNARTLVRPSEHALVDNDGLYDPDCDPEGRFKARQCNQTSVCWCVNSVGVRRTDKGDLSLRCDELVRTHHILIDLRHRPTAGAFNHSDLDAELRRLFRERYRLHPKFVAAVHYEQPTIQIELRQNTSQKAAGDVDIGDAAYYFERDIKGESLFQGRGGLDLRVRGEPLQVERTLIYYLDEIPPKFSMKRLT

[3] = biological target: T3, mouse Trop-2-His (mouse, UniProt Q8BGV3 25-270); test: ELISA on coated antigen, one antibody dilution (concentration not given), detected by GAH-HRP; y axis without a label (OD450 by the text)
T3 sequence (looked up): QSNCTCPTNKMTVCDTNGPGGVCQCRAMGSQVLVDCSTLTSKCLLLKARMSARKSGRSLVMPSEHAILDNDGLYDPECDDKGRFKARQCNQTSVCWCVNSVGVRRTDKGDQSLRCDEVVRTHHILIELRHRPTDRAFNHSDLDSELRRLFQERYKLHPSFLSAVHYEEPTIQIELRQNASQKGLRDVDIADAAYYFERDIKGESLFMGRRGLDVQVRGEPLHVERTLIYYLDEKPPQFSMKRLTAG

[4] = biological target: T4, human EPCAM-His (human, UniProt P16422 24-265); test: as above
T4 construct: also called hEPCAM
T4 sequence (looked up): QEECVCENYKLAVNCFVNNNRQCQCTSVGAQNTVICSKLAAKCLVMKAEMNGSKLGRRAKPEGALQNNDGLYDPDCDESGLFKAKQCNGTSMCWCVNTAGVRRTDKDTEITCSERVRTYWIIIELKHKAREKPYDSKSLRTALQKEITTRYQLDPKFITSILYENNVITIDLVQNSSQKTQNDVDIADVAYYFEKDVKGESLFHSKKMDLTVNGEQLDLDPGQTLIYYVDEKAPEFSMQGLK

[5] = biological target: T1, human Trop-2 on Trop-2 positive cancer …; test: cell-based or functional assay; remark: listed apart in the source
[6] = biological target: T2, human Trop-2-ECD-6His fusion protein; test: antigen binding ELISA on immobilized human Trop-2-ECD-6His; remark: listed apart in the source
[7] = biological target: T1, human Trop-2 on Trop-2 positive cancer …; test: cell-based or functional assay; remark: listed apart in the source
[8] = biological target: T2, human Trop-2-ECD-6His fusion protein; test: antigen binding ELISA on immobilized human Trop-2-ECD-6His; remark: listed apart in the source

- Internalization rate (flow cytometry, MDA-MB-468 cells) [1]: 28.4%
- EC50 [2]: 0.024 nM
- binding result [3]: no binding
- binding result [4]: no binding
B1: #118-2-5 mouse H4-2/L3-3 (antibody, V domains shown)
VH: QVQLKQSGPGLVAPSQSLSITCTVSGFSLTSYGVNWIRQPPGKGLEWLGVMWAGGSTNYNSALMSRLSISKDNSKSQVFLKMNSLQTDDTGMYYCARDENWDGAWFAYWGQGTLVTVS
VL: DIQMTQSPSSLAVSAGEKVTMSCKSSQSLLNSGTRKNYLAWYQQKPGQSPKLLISWASSRESGVPDRFTGSGSGTDFTLTISSVQAEDLAVYYCKQSYNLFTFGGGTKLELK
notes: The label H4-2/L3-3 is not explained

- Internalization rate (flow cytometry, MDA-MB-468 cells) [5]: 14%
- EC50 [6]: 0.003 nM
B2: humanized #125-1-5 Hu1/Lu6 (antibody, V domains shown)
VH: QVQLVQSGAEVKKPGASVKVSCKASGYTFTTYVIHWVRQAPGQRLEWMGYINPNNDGTKYNEKFKGRVTITRDTSASTAYMELSSLRSEDTAVYYCARPHFETHAMDYWGQGTLVTVSS
VL: DIQMTQSPSSLSASVGDRVTITCKASEDIFNRLAWYQQKPGKAPKLLISGATSLETGVPSRFSGSGSGKDYTLTISSLQPEDFATYYCQQYWNTWTFGQGTKVEIK
notes: Humanized antibody

- Internalization rate (flow cytometry, MDA-MB-468 cells) [5]: 47.3%
- EC50 [6]: 0.007 nM
B3: humanized #125-1-5 Hu2/Lu5 (antibody, V domains shown)
VH: B2 VH with R38K, A40K, R44G, M48I
VL: B2 VL with I48L, S49Y, K69T
notes: Humanized antibody

- Internalization rate (flow cytometry, MDA-MB-468 cells) [1]: 70.9%
- Internalization rate (flow cytometry, MDA-MB-468 cells) [7]: 96.8%
- EC50 [2]: 0.142 nM
- EC50 [8]: 0.39 nM
- binding result [3]: no binding
- binding result [4]: no binding
B4: humanized IgG #118-2-5 HuA/LuX (antibody, V domains shown)
VH: QVQLQESGPGLVKPSETLSLTCTVSGFSLTSYGVNWIRQPPGKGLEWIGVMWAGGSTNYNSALMSRVTISVDTSKNQFSLKLSSVTAADTAVYYCARDENWDGAWFAYWGQGTLVTVSS
VL: DIVMTQSPDSLAVSLGERATINCKSSQSLLNSGTRKNYLAWYQQKPGQPPKLLIYWASSRESGVPDRFSGSGSGTDFTLTISSLQAEDVAVYYCKQSYNLFTFGGGTKVEIK
notes: Full-length IgG expressed in HEK293-6E cells; also called 1 (HuA/LuX); IgG HuA/LuX

- Internalization rate (flow cytometry, MDA-MB-468 cells) [1]: 13.2%
- Internalization rate (flow cytometry, MDA-MB-468 cells) [7]: 57.3%
- EC50 [2]: 0.005 nM
- EC50 [8]: 0.06 nM
- binding result [3]: no binding
- binding result [4]: no binding
B5: humanized IgG #118-2-5 HuD/LuY (antibody, V domains shown)
VH: B4 VH with Q5K, K13A, L20I, I48L, V67L, V71K, F78V, T86Q, V92M
VL: B4 VL with D9S, I21M, N22S, Y55S, L84V, V89L
notes: Full-length IgG expressed in HEK293-6E cells; also called 8 (HuD/LuY)

- Internalization rate (flow cytometry, MDA-MB-468 cells) [1]: 0.9%
- EC50 [2]: 0.034 nM
- binding result [3]: no binding
- binding result [4]: no binding
B6: humanized IgG #118-2-5 HuC/LuX (antibody, V domains shown)
VH: QVQLQESGPGLVKPSETLSLTCTVSGFSLTSYGVNWIRQPPGKGLEWIGVMWAGGSTNYNSALMSRLSISKDNSKSQVFLKMNSLQTDDTGMYYCARDENWDGAWFAYWGQGTLVTVSS
VL: B4 VL
notes: Full-length IgG expressed in HEK293-6E cells; also called 3 (HuC/LuX)

- Internalization rate (flow cytometry, MDA-MB-468 cells) [7]: 61.5%
- EC50 [8]: 0.12 nM
B7: humanized IgG #118-2-5 HuA/Lu(X4) (antibody, V domains shown)
VH: B4 VH
VL: B4 VL with Y55S
notes: Second round of humanization

- Internalization rate (flow cytometry, MDA-MB-468 cells) [7]: 14.6%
- EC50 [8]: 0.37 nM
B8: humanized IgG #118-2-5 Hu(A2)/LuX (antibody, V domains shown)
VH: B4 VH with V71K
VL: B4 VL
notes: Second round of humanization

- Internalization rate (flow cytometry, MDA-MB-468 cells) [1]: -14.7%
- EC50 [2]: 0.016 nM
- binding result [3]: no binding
- binding result [4]: no binding
B9: humanized IgG #118-2-5 HuA/LuY (antibody, V domains shown)
VH: B4 VH
VL: B4 VL with D9S, I21M, N22S, Y55S, L84V, V89L
notes: Full-length IgG expressed in HEK293-6E cells

- Internalization rate (flow cytometry, MDA-MB-468 cells) [7]: 55.8%
- EC50 [8]: 0.31 nM
B10: humanized IgG #118-2-5 Hu(A3)/LuX (antibody, V domains shown)
VH: B4 VH with F78V
VL: B4 VL
notes: Second round of humanization

- Internalization rate (flow cytometry, MDA-MB-468 cells) [7]: 46.4%
- EC50 [8]: 0.26 nM
B11: humanized IgG #118-2-5 HuA/Lu(X6) (antibody, V domains shown)
VH: B4 VH
VL: B4 VL with V89L
notes: Second round of humanization

- Internalization rate (flow cytometry, MDA-MB-468 cells) [7]: 19.7%
- EC50 [8]: 0.31 nM
B12: humanized IgG #118-2-5 HuA/Lu(X5) (antibody, V domains shown)
VH: B4 VH
VL: B4 VL with L84V
notes: Second round of humanization

- Internalization rate (flow cytometry, MDA-MB-468 cells) [1]: 3%
- EC50 [2]: 0.014 nM
- binding result [3]: no binding
- binding result [4]: no binding
B13: humanized IgG #118-2-5 HuC/LuY (antibody, V domains shown)
VH: B6 VH
VL: B4 VL with D9S, I21M, N22S, Y55S, L84V, V89L
notes: Full-length IgG expressed in HEK293-6E cells; also called 7 (HuC/LuY)

- Internalization rate (flow cytometry, MDA-MB-468 cells) [1]: -8.5%
- EC50 [2]: 0.004 nM
- binding result [3]: no binding
- binding result [4]: no binding
B14: humanized IgG #118-2-5 HuB/LuY (antibody, V domains shown)
VH: B4 VH with Q5K, E6Q, K13A, E16Q, T17S, L20I
VL: B4 VL with D9S, I21M, N22S, Y55S, L84V, V89L
notes: Full-length IgG expressed in HEK293-6E cells; also called 6 (HuB/LuY)

- Internalization rate (flow cytometry, MDA-MB-468 cells) [7]: 52.8%
- EC50 [8]: 0.39 nM
B15: humanized IgG #118-2-5 Hu(A4)/LuX (antibody, V domains shown)
VH: B4 VH with T86Q
VL: B4 VL
notes: Second round of humanization

- Internalization rate (flow cytometry, MDA-MB-468 cells) [7]: 11.5%
- EC50 [8]: 0.34 nM
B16: humanized IgG #118-2-5 Hu(A5)/LuX (antibody, V domains shown)
VH: B4 VH with V92M
VL: B4 VL
notes: Second round of humanization

- Internalization rate (flow cytometry, MDA-MB-468 cells) [1]: 75%
- EC50 [2]: 0.164 nM
- binding result [3]: no binding
- binding result [4]: no binding
B17: humanized IgG #118-2-5 HuB/LuX (antibody, V domains shown)
VH: B4 VH with Q5K, E6Q, K13A, E16Q, T17S, L20I
VL: B4 VL
notes: Full-length IgG expressed in HEK293-6E cells; also called 2 (HuB/LuX)

- Internalization rate (flow cytometry, MDA-MB-468 cells) [7]: 48.9%
- EC50 [8]: 0.26 nM
B18: humanized IgG #118-2-5 HuA/Lu(X1) (antibody, V domains shown)
VH: B4 VH
VL: B4 VL with D9S
notes: Second round of humanization

- Internalization rate (flow cytometry, MDA-MB-468 cells) [7]: 43.2%
- EC50 [8]: 0.36 nM
B19: humanized IgG #118-2-5 HuA/Lu(X2) (antibody, V domains shown)
VH: B4 VH
VL: B4 VL with I21M
notes: Second round of humanization

- Internalization rate (flow cytometry, MDA-MB-468 cells) [1]: -7.8%
- EC50 [2]: 0.011 nM
- binding result [3]: no binding
- binding result [4]: no binding
B20: humanized IgG #118-2-5 HuD/LuX (antibody, V domains shown)
VH: B4 VH with Q5K, K13A, L20I, I48L, V67L, V71K, F78V, T86Q, V92M
VL: B4 VL
notes: Full-length IgG expressed in HEK293-6E cells; also called 4 (HuD/LuX)

- Internalization rate (flow cytometry, MDA-MB-468 cells) [5]: 5.5%
B21: #125-1-5 mouse H14-4/L3-4 (antibody, V domains shown)
VH: QIQLVQSGPELVKPGASVKMSCKASGYTFTTYVIHWVKQKPGQGLEWIGYINPNNDGTKYNEKFKGKATLISDKSSTTAYMEVRGLTSEDSAVYYCARPHFETHAMDYWGQGTSVTVSS
VL: DIQMTQSPSSFSVSLGDSVTITCKASEDIFNRLAWYQQKPGNAPRLLISGATSLETGVPSRFSGGGSGKEYTLSITSLQNEDVATYYCQQYWNTWTFGGGTKLEIK

Reference: US20230235080A1, “TROPHOBLAST CELL-SURFACE ANTIGEN-2 (TROP-2) ANTIBODIES” (Bionecure Therapeutics, Inc., priority 2020, published 2023)
